The values that follow come from patent US20230272054A1, “COMBINATION THERAPIES FOR THE TREATMENT AND PREVENTION OF BIOFILMS” (priority 2020, published 2023).

Entries after “also recorded” stand apart in the source; their conditions may differ.

One data set has as its system B. cenocepacia. Description: Murine model of lung infection by B. cenocepacia, bacterial burden. The following applies: 0.2 nmol i.t. at 24 hpi; 72 hpi; α-EF-Tu labeling.
The test system of a further data set is TNF-α. Description: Mouse model of endotoxemia, serum TNF-α by ELISA. Particulars: i.p. 0.2 nmol endotoxin-free rHMGB1 or LPS 5 mg/kg; 24 h. The class given is in vivo, C57BL/6 mice. As for the experimental part:
Since excess HMGB1 can mediate dysregulated host response to infection associated with septic shock, the ability of rHMGB1 (0.2 nmol; the concentration used to treat in vivo biofilms) to induce septic shock was evaluated in mice. Mice were injected i.p. with either 0.2 nmol endotoxin-free rHMGB1, lipopolysaccharide (LPS; 5 mg/kg) or both, then monitored for signs of septic shock for 24 hours.
Mouse model of endotoxemia: C57BL/6 mice were injected i.p. with 5 mg/kg of E. coli lipopolysaccharide (Sigma), or 0.2 nmol rHMGB1 alone or in combination with LPS. Animals were euthanized 24 h later, serum was collected, and TNF-α was quantified by ELISA (ThermoFisher).
A general note: An ELISA detects its analyte on a solid surface through an enzyme-linked reagent.

The subject of data set [1] is eDNA lattice within K. pneumoniae biofilms. The data set can be described thus: Visualization of eDNA lattice structure within K. pneumoniae biofilms (immunofluorescence, CLSM). The class given is cell-based, Klebsiella pneumoniae. Particulars: 24 h K. pneumoniae biofilms, 200 nM protein, 16 h. From the text:
Per the model as disclosed herein, HMGB1 would compete with DNABII proteins, wherein instead of stabilization, HMGB1 would de-stabilize these HJ-like structures and consequently disrupt the biofilm.

The test system of the next data set is Human neutrophils. Description: NET formation by neutrophils incubated with HMGB1 isoforms (CLSM). The data set is classed as cell-based. Particulars: 200 nM protein, 3.5 h. As to the method: Neutrophils were fixed, then labeled as described above to visualize the NETs.
Visualization of NETs structure upon incubation of neutrophils with various isoforms of HMGB1: Human neutrophils were isolated from blood using the EASYSEP™ isolation kit (Stemcell Technologies Inc.). […] NETs were fixed in formalin, blocked with 10% normal goat serum (Life Technologies), and labeled with α-dsDNA monoclonal antibody (1 μg), and α-neutrophil elastase polyclonal antibody (1 μg) or naive rabbit and mouse isotype controls (1 μg) in 200 μl PBS for 16 h hours at 4° C. NETs were washed with PBS and incubated for 1 h with 1:200 dilution goat α-rabbit IgG conjugated to ALEXAFLUOR® 594, goat α-mouse IgG conjugated to ALEXAFLUOR® 488, and 1:500 dilution wheat germ agglutinin conjugated to ALEXAFLUOR® 350 (PMN membrane stain). NETs were imaged with a Zeiss LSM 800 confocal microscope (Carl Zeiss Inc.) and rendered with Zeiss Zen software.

In the next data set the test system is S. aureus biofilms. The data set can be described thus: Disruption of 24 h S. aureus biofilms in vitro (CLSM, COMSTAT average thickness). Particulars: 24 h biofilms, 16 h; non-bactericidal dose.
Another data set has as its system neutrophils in BAL. The data set can be described thus: Inflammatory cell recruitment into lungs of B. cenocepacia-challenged mice (H&E, flow cytometry of BAL). The class given is in vivo, C57BL/6 mice. Particulars: B. cenocepacia-infected and simultaneously treated, 0.2 nmol, 18 hpi. In general terms: Flow cytometry measures light scatter and fluorescence of single cells or particles in a stream.

Experiment in data set [2]: as above
The data set is classed as in vivo, C57BL/6 mice. Particulars: B. cenocepacia-challenged mice, 0.2 nmol, 72 hpi.

In data set [3] the test system is UPEC biofilms. Particulars: 24 h UPEC biofilms, rHMGB1 200 nM, 16 h.
Data set [4] relates to UPEC biofilms. The data set can be described thus: Disruption of 24 h UPEC biofilms in vitro (CLSM, COMSTAT average thickness). Particulars: 24 h UPEC biofilms, indicated concentrations of rHMGB1.
For the next data set, the system named is HJ DNA. Description: Stabilization of HJ DNA at RT or 55° C, non-denaturing PAGE. The following applies: 32P HJ DNA, 25-500 nM protein, 10 min. The data set is classed as binding. As to the method:
5′ end-labeled ^32P HJ DNA was incubated with increasing concentrations (25-500 nM) of IHF (FIG. 8A), rHMGB1 (FIG. 8B) or RuvA (FIG. 8C) either at room temperature (RT) or at 55° C. for 10 min, then resolved on a 6% non-denaturing PAGE. Asterisk indicates melted oligos and arrows indicate DNA-protein complex. […] This outcome contrasts with that observed with both IHF and the prototypic HJ DNA binding protein, RuvA.
To test the hypothesis, HJ DNA was incubated with either HMGB1, the DNABII protein IHF, or the prototypic HJ DNA binding protein, RuvA at room temperature (RT) or 55° C. (melting temperature of HJ DNA) and resolved the complexes by non-denaturing polyacrylamide gel electrophoresis (PAGE). […] (FIG. 8) as indicated by the decrease in abundance of the shifted HJ DNA-HMGB1 complex (arrow) and the concomitant increase in the constituent melted oligos (asterisk).
Electrophoretic mobility shift assay (EMSA): EMSA was performed as previously described (Devaraj et al., 2019).

In data set [5] the test system is pro-inflammatory and anti-inflammatory cytokines. The data set can be described thus: Quantitation of cytokines in middle ear fluids (cytometric bead array). The class given is in vivo, chinchilla (Chinchilla lanigera). Particulars: six days after NTHI challenge, one day after completion of treatment. As to the method: Quantitation of cytokines in middle ear fluids: To quantitate cytokines in middle ear fluids (MEF), a BD™ Cytometric Bead Array was performed with fluids collected at the time of animal sacrifice. With BD™ human-specific Flex Sets, each MEF was individually examined for relative quantity of IL-1β, IL-4, IL-6, IL-8, IL-10, IL12-p70, IL-13, IL-17A, TNF or IFNγ according to manufacturer's instructions. MEFs from each animal were assayed individually. Data were captured on a BD ACCURI™ C6 cytometer (BD Biosciences) and analyzed with FlowJo software (FlowJo, LLC). The concentration of cytokines in each MEF was determined using a standard curve and calculated using GraphPad Prism software.

Another data set has as its system E. faecium biofilms. The data set can be described thus: Disruption of 24 h E. faecium biofilms in vitro (CLSM, COMSTAT average thickness). The following applies: 24 h biofilms, 1 h incubation; non-bactericidal dose.
Data set [6] relates to biofilms formed by UPEC, B. cenocepacia, NTHI, Enterobacter spp, S. aureus, K. pneumoniae, A. baumanii, P. aeruginosa, E. faecium. Description: Disruption of 24 h bacterial biofilms in vitro by HMGB1 isoforms (LIVE/DEAD stain, CLSM, COMSTAT average thickness). Particulars: 24 h biofilms of nine pathogens; 200 nM protein, 16 h (S. aureus 800 nM rHMGB1; E. faecium 800 nM, 1 h).

B1: rHMGB1: recombinant HMGB1 derived from a human, expressed and purified in E. coli, SEQ ID NO: 51; comparator to mHMGB1 (protein, listed as Homo sapiens)
chain: MGKGDPKKPRGKMSSYAFFVQTCREEHKKKHPDASVNFSEFSKKCSERWKTMSAKEKGKFEDMAKADKARYEREMKTYIPPKGETKKKFKDPNAPKRPPSAFFLFCSEYRPKIKGEHPGLSIGDVAKKLGEMWNNTAADDKQPYEKKAAKLKEKYEKDIAAYRAKGKPDAAKKGVVKAEKSKKKKEEEEGEEDEEDEEEEEDEEDEDEEEDDDDE
As for B1, the “B. cenocepacia stained within the lung tissue” value in the data set with B. cenocepacia is “significantly reduced bacterial load”. The “serum TNF-α (septic shock)” value with TNF-α is reported as “did not induce septic shock; also recorded: did not induce detectable TNF-α”. In addition, in data set [1], the “biofilm bacteria (FilmTracer FM 4-64)” value is “substantial reduction in biofilm bacteria” and the “web-like eDNA lattice structure within biofilm” value is reported as “disruption of the web-like structure; also recorded: notably disrupted”. Besides, in the data set with Human neutrophils, the “induction of NET formation by neutrophils” value is on record as “intertwined NETs specifically formed; also recorded: modest effect on induction of NETs”. Also, in the data set with S. aureus biofilms, the “dose required to achieve a similar reduction in biofilm average thickness, S. aureus” value is recorded as 800 nM. Further, the “neutrophils in BAL (flow cytometry)” value in the data set on neutrophils in BAL is “significantly greater number of neutrophils in BAL compared to the control”. Also, the “infiltration of inflammatory cells into lungs (H&E)” value in data set [2] was “significant infiltration of inflammatory cells”. For the same molecule, in the data set on UPEC biofilms [3], the “bacteria in the planktonic state” value is “statistically significant increase in the planktonic bacteria” and the biofilm-resident bacteria entry is “statistically significant decrease in biofilm-resident bacteria”. The “dose dependence of UPEC biofilm disruption” value in the data set with UPEC biofilms [4] was “dose-dependent disruption; also recorded: dose-dependent activity”. Besides, in the data set with HJ DNA, the “stabilization of HJ DNA at 55° C (melting temperature of HJ DNA)” value was “unstable at 55 °C” and the “HJ DNA-protein complex at room temperature (RT)” value was “stable at RT”. Besides, in the data set on HJ DNA (listed as HMGB1), the “stabilization of HJ DNA at 55° C (melting temperature of HJ DNA)” value was “unable to efficiently stabilize the HJ DNA at 55 °C” and the “HJ DNA-protein complex at room temperature (RT)” value is recorded as “bound to HJ DNA to form stable complexes at RT”. For the same molecule, in data set [5], the “IL-1β in middle ear fluids” value is “significantly elevated concentration; also recorded: statistically significant increase” and the “IL-17A in middle ear fluids” value is on record as “significantly elevated concentration; also recorded: statistically significant increase”. The “dose required to achieve a similar reduction in biofilm average thickness, E. faecium” value with E. faecium biofilms stood at 800 nM. The “biofilm average thickness compared to control” value in [6] was “significantly disrupted bacterial biofilms; also recorded: significant reduction in biofilm average thickness”.
